Data taken from publication PMC9482650, “Quantitative fragmentomics allow affinity mapping of interactomes” (Nature Communications, 2022).

T1: NHERF3_4, Q5T2W1
T1 sequence (Q5T2W1 373-468, limits assumed, looked up): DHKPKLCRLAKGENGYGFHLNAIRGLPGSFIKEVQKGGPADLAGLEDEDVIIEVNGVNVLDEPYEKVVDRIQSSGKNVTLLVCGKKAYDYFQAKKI

T2: ARHGEF11, O15085
T2 sequence (O15085 42-136, limits assumed, looked up): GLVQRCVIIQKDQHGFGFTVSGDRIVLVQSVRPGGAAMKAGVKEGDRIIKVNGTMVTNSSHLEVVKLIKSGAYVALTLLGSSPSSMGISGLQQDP

T3: TIAM2, Q8IVF5
T3 sequence (Q8IVF5 885-986, limits assumed, looked up): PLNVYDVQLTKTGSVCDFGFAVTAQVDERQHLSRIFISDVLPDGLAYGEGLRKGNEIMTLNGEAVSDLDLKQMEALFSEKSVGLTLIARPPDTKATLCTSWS

T4: LRRC7, Q96NW7
T4 sequence (Q96NW7 1440-1537, limits assumed, looked up): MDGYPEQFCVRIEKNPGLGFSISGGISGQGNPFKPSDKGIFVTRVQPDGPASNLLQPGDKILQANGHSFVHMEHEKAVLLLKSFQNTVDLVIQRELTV

T5: PDZRN3_1, Q9UPQ7
T5 sequence (Q9UPQ7 244-349, limits assumed, looked up): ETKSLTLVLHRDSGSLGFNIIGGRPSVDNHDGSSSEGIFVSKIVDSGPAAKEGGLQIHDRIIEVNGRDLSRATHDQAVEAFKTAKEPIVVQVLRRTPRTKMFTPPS

T6: MPDZ_12, O75970
T6 sequence (O75970 1857-1958, limits assumed, looked up): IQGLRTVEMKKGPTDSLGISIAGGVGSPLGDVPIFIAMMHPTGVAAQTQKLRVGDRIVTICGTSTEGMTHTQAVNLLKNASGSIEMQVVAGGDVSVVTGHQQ

T7: DFNB31_1, Q9P202
T7 sequence (Q9P202 135-233, limits assumed, looked up): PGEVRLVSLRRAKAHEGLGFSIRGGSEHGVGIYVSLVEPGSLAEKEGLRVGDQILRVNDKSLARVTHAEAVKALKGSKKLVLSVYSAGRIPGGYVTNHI

T8: PTPN13_1, Q12923
T8 sequence (Q12923 1088-1188, limits assumed, looked up): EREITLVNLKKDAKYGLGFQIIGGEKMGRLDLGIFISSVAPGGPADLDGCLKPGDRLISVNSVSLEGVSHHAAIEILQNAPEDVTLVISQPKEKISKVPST

T9: DLG3_1, Q92796
T9 sequence (Q92796 125-227, limits assumed, looked up): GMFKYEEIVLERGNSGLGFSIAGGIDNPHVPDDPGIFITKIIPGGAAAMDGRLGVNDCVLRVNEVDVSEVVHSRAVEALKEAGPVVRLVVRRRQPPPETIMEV

T10: APBA2_1, Q99767
T10 sequence (Q99767 563-664, limits assumed, looked up): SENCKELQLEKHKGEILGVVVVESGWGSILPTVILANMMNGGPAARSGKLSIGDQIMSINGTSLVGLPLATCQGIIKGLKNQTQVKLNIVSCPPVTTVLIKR

T11: DFNB31_3, Q9P202
T11 sequence (Q9P202 811-907, limits assumed, looked up): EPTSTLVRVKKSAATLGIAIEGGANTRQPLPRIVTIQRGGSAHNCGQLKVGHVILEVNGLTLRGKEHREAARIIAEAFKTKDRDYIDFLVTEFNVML

T12: LIN7C, Q9NUP9
T12 sequence (Q9NUP9 88-185, limits assumed, looked up): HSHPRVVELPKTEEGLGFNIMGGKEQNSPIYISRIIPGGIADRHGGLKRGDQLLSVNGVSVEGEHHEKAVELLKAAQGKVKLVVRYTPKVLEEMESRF


What was measured:
Assay in all cases: holdup assay
Set-up in all cases: key: below the threshold = too weak to quantify, mostly under pKd 3.1 to 4
Conditions in all cases: plain residues with an end cap or a label only (N-terminal biotin on a linker: ado-ado)
[1] = target: TJP1_3, Q07157
[2] = target: T1, NHERF3_4, Q5T2W1
[3] = target: Inadl_9, Q8NI35
[4] = target: DLG1_3, Q12959
[5] = target: Inadl_1, Q8NI35
[6] = target: T2, ARHGEF11, O15085
[7] = target: T3, TIAM2, Q8IVF5
[8] = target: T4, LRRC7, Q96NW7
[9] = target: AHNAK1, Q09666
[10] = target: HTRA2, O43464
[11] = target: T5, PDZRN3_1, Q9UPQ7
[12] = target: DLG1_2, Q12959
[13] = target: T6, MPDZ_12, O75970
[14] = target: T7, DFNB31_1, Q9P202
[15] = target: MAGI2_6, Q86UL8
[16] = target: T8, PTPN13_1, Q12923
[17] = target: NHERF2_2, Q15599
[18] = target: MAST2, Q6P0Q8
[19] = target: T9, DLG3_1, Q92796
[20] = target: T10, APBA2_1, Q99767
[21] = target: NHERF4_2, Q86UT5
[22] = target: T11, DFNB31_3, Q9P202
[23] = target: LNX1_3, Q8TBB1
[24] = target: T12, LIN7C, Q9NUP9
[25] = target: NHERF4_4, Q86UT5
[26] = target: MAGI1_1, Q96QZ7
Chain of MAGI1_1, Q96QZ7 (Q96QZ7 1-106): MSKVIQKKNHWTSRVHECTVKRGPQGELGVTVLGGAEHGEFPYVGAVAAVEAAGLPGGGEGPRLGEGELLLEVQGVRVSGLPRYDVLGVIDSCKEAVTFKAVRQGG

Chain of Inadl_1, Q8NI35 (Q8NI35 113-229): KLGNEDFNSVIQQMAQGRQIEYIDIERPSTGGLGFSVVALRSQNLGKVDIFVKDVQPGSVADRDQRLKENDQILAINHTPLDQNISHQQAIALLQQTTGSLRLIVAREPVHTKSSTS
Chain of NHERF2_2, Q15599 (Q15599 142-238): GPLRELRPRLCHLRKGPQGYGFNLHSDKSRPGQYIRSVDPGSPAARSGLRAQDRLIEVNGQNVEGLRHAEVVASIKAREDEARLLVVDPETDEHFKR
Chain of DLG1_3, Q12959 (Q12959 457-571): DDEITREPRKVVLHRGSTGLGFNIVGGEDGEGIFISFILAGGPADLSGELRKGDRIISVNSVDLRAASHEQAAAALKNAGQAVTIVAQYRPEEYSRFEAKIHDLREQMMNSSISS
Chain of LNX1_3, Q8TBB1 (Q8TBB1 500-596): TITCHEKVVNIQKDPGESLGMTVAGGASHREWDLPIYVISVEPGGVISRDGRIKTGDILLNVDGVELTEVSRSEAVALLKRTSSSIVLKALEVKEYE
Chain of NHERF4_4, Q86UT5 (Q86UT5 464-550): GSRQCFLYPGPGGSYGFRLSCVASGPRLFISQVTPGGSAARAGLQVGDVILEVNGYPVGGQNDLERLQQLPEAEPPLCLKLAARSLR
Chain of AHNAK1, Q09666 (Q09666 4-100): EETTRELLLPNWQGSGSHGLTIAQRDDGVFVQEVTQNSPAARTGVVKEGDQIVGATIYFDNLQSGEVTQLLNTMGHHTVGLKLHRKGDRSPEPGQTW
Chain of Inadl_9, Q8NI35 (Q8NI35 1530-1615): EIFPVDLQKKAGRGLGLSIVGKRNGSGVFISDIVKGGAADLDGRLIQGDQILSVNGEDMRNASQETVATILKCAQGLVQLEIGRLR
Chain of DLG1_2, Q12959 (Q12959 314-412): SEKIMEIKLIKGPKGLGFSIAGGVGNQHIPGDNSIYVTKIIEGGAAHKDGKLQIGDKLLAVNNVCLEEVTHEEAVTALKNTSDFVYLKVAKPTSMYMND
Chain of MAST2, Q6P0Q8 (Q6P0Q8 1099-1202): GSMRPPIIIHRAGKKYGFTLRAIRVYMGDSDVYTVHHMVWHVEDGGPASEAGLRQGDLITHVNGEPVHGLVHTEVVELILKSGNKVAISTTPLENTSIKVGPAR
Chain of NHERF4_2, Q86UT5 (Q86UT5 220-308): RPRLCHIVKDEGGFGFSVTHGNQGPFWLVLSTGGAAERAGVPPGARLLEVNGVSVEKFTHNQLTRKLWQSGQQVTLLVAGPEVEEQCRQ
Chain of TJP1_3, Q07157 (Q07157 416-512): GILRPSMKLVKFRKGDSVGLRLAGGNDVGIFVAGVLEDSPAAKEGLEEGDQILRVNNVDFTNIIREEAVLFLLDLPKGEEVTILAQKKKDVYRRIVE
Chain of MAGI2_6, Q86UL8 (Q86UL8 1141-1229): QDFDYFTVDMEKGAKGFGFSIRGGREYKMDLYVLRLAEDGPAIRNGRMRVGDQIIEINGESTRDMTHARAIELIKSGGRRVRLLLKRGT
Chain of HTRA2, O43464 (O43464 355-458): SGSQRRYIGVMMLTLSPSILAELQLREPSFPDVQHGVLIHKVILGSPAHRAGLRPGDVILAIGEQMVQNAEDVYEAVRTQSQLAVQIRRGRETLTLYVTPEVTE

Binder	pKd [1]	pKd [2]	pKd [3]	pKd [4]	pKd [5]	pKd [6]	pKd [7]	pKd [8]	pKd [9]	pKd [10]	pKd [11]	pKd [12]	pKd [13]	pKd [14]	pKd [15]	pKd [16]	pKd [17]	pKd [18]	pKd [19]	pKd [20]	other results
RDFDYIADWC [PKN2, Q16513]	3.89	below the threshold	4.34	below the threshold	below the threshold	3.68	4.19	below the threshold	below the threshold	5.11	below the threshold	below the threshold	4.2	3.69	3.77	below the threshold	below the threshold	3.64	below the threshold	below the threshold	pKd [21]: below the threshold; pKd [22]: below the threshold; pKd [23]: below the threshold; pKd [24]: below the threshold; pKd [25]: below the threshold; pKd [26]: below the threshold
ALPLPQSSTC [IGF1R, P08069]	below the threshold	below the threshold	below the threshold	3.56	below the threshold	4.13	below the threshold	below the threshold	below the threshold	below the threshold	below the threshold	3.5	below the threshold	below the threshold	below the threshold	below the threshold	below the threshold	4.31	below the threshold	below the threshold	pKd [21]: below the threshold; pKd [22]: 3.59; pKd [23]: below the threshold; pKd [24]: below the threshold; pKd [25]: below the threshold; pKd [26]: below the threshold
REKKFFCTIL [GNG4, P50150]	below the threshold	5.36	below the threshold	4.35	below the threshold	5.34	3.98	3.97	below the threshold	4.49	4.14	4.3	3.62	4.1	4	below the threshold	4.52	5.62	3.65	below the threshold	pKd [21]: below the threshold; pKd [22]: 4.62; pKd [23]: 3.95; pKd [24]: below the threshold; pKd [25]: 3.76; pKd [26]: below the threshold
RRLQGTSSMV [GOLT1A, Q6ZVE7]	below the threshold	below the threshold	below the threshold	3.58	below the threshold	below the threshold	4.03	below the threshold	below the threshold	below the threshold	below the threshold	4.71	below the threshold	below the threshold	3.68	below the threshold	below the threshold	4.72	3.81	below the threshold	pKd [21]: below the threshold; pKd [22]: 3.66; pKd [23]: below the threshold; pKd [24]: below the threshold; pKd [25]: below the threshold; pKd [26]: below the threshold
VRPGVKESLV [SCN4A, P35499]	below the threshold	below the threshold	3.71	3.97	below the threshold	below the threshold	below the threshold	4.02	below the threshold	below the threshold	4.38	5.64	below the threshold	3.73	3.93	below the threshold	below the threshold	4.87	4.5	below the threshold	pKd [21]: below the threshold; pKd [22]: below the threshold; pKd [23]: below the threshold; pKd [24]: 4.38; pKd [25]: 3.96; pKd [26]: below the threshold
TGPWKNETTV [ADGRA1, Q86SQ6]	below the threshold	below the threshold	below the threshold	4.47	below the threshold	4.09	below the threshold	below the threshold	below the threshold	below the threshold	4.07	5.33	below the threshold	3.73	3.71	below the threshold	below the threshold	5.31	4.47	below the threshold	pKd [21]: below the threshold; pKd [22]: below the threshold; pKd [23]: below the threshold; pKd [24]: 4.27; pKd [25]: 3.9; pKd [26]: below the threshold
